Consider 140 substances from the supplement of paper PMC12042874.

± gives the uncertainty stated by the source.

The nature of the series: amyloid nucleation score (Sup35N fusion, yeast selection) (log enrichment); library NNK1; higher = more nucleation; inactive = no reads after selection. In a few lines: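 Sup35N fusions to peptides of 20 random codons were expressed in psi-negative yeast, induced 24 hours with 100 μM copper sulfate, and grown 7 days at 30°C on medium lacking adenine and uracil. Input and output plasmid inserts were sequenced by Illumina. The nucleation score is the DiMSum log enrichment of output over input reads, centred on the mode score of non-aggregating sequences. Sequences with under 100 input reads were excluded.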
On to LIRMHTICVWDSSVIMSIMA, for which the amyloid nucleation score is -0.354 ± 0.44.

LISCIRFYCSVLGVDCTDSV yielded an amyloid nucleation score of 0.235 ± 0.39.

For the substance LIYVLYLY, the amyloid nucleation score worked out at 0.501 ± 0.55.

The substance LKAHPSVTSCPVRSLI gave an amyloid nucleation score of -0.281 ± 0.39.

In the case of LKMFSRPCVMIKNRTGVR, the amyloid nucleation score turned out to be 0.452 ± 0.33.

The substance LKSSNVPTRNVMRYMPSAFE had an amyloid nucleation score of -0.292 ± 0.59.

Turning to LLATCVRVECY, the amyloid nucleation score amounted to 1.58 ± 0.51.

The substance LLCFLFTK yielded an amyloid nucleation score of 3.32 ± 0.15.

The substance LLDKISNRPTQYGTTVPPVP displayed an amyloid nucleation score of 0.573 ± 0.45.

In turn, LLFHSGWMMNGNPWACWYRE registered an amyloid nucleation score of 1.89 ± 0.25.

On to LLFTNEKHNSLVNQGTPEWC, for which the amyloid nucleation score was 0.13 ± 0.9.

In turn, LLGRLVQCCRPWY came in with an amyloid nucleation score of -1.17 ± 2.7.

Substance LLGYLAMCS displayed an amyloid nucleation score of 1.01 ± 0.23.

For the substance LLIALFSW, the amyloid nucleation score came to 1.34 ± 0.25.

As to LLIVYYNVDITQCRWFTELC, the amyloid nucleation score is -0.16 ± 0.58.

The substance LLLRSRSTRF registered an amyloid nucleation score of -0.233 ± 0.3.

Regarding LLLTWFFPQHASRVNMSYSS, the amyloid nucleation score is 0.024 ± 0.39.

LLLYDPREC showed an amyloid nucleation score of -1.46 ± 0.91.

On to LLLYSGEFNS, for which the amyloid nucleation score was -0.433 ± 0.39.

Substance LLNAAHIEGT displayed an amyloid nucleation score of 0.064 ± 0.59.

Consider LLNCLWDKMWTGLVRCIKNG, for which the amyloid nucleation score was -0.075 ± 0.35.

In turn, LLNVVCRARVWS registered an amyloid nucleation score of -0.241 ± 0.32.

In turn, LLPGLIEWSVGLMCLIL showed an amyloid nucleation score of 0.023 ± 0.9.

LLPYSLMLRDLGFLKHYLGV had an amyloid nucleation score of -0.264 ± 0.61.

Consider LLRCPYLNFGASMYLIRFCS, for which the amyloid nucleation score came to 0.404 ± 0.53.

On to LLRGTIFVNDRVTID, for which the amyloid nucleation score was 0.973 ± 0.59.

In the case of LLRWFALGTYVSGWRWDERR, the amyloid nucleation score was -0.179 ± 0.32.

In turn, LLTDRRDSSSRNDTLVRKGM gave an amyloid nucleation score of 2.23 ± 0.091.

In turn, LLTSIPRRVIARVSEGFCCN had an amyloid nucleation score of -0.311 ± 0.71.

LLTTIGQTRMVIHKGIERNE showed an amyloid nucleation score of 1.77 ± 0.14.

LLVLYCALLMRLSGLGHAWG showed an amyloid nucleation score of -0.269 ± 0.51.

As for LLVMVVMGCCA, the amyloid nucleation score amounted to 0.163 ± 0.83.

As for LLVPHYFLEL, the amyloid nucleation score was found to be 0.222 ± 0.43.

Substance LLVRNMSNVVPLMFSIPSNV gave an amyloid nucleation score of 0.458 ± 0.65.

In turn, LLWISRTRPYWLLFSVWKLA came in with an amyloid nucleation score of -0.107 ± 0.9.

For the substance LLWTKFGYCYRIEWSAVWFF, the amyloid nucleation score is -0.527 ± 0.52.

In turn, LLYISSTVM gave an amyloid nucleation score of 1.07 ± 0.38.

LLYSMDRQVLMSAISLLSIT displayed an amyloid nucleation score of 0.903 ± 0.63.

For the substance LMAYNLGRPFAPFNCNVMGR, the amyloid nucleation score was -0.268 ± 0.98.

For the substance LMHRFPSINRLHTAPMPRAT, the amyloid nucleation score was 0.58 ± 1.1.

LMRRAAVFFAGSRAGSRCLT returned an amyloid nucleation score of -0.675 ± 0.4.

The substance LMRYALSIPRRAYVVRRLVM registered an amyloid nucleation score of 0.444 ± 1.2.

The substance LMVFAIRDLNFRHTILQPVP had an amyloid nucleation score of -0.081 ± 0.42.

As to LMWKNSGNYKLRCYRVV, the amyloid nucleation score was -0.065 ± 0.21.

Substance LNCNV gave an amyloid nucleation score of 1.24 ± 0.76.

Regarding LNCRGVLDRTKSRVSHNNES, the amyloid nucleation score amounted to 3.38 ± 0.18.

Substance LNDNLGSMFSL had an amyloid nucleation score of -0.772 ± 0.64.

LNDPMAGRLNNVRSGCLDDV displayed an amyloid nucleation score of -0.059 ± 0.43.

Take LNFCSVRVMEEISMVWCMVF: the amyloid nucleation score was 4.24 ± 0.11.

LNISQRRIYFWSYWLHHITY returned an amyloid nucleation score of -0.282 ± 0.6.

In the case of LNLRGDRN, the amyloid nucleation score was 0.304 ± 0.29.

Take LNNAKCKLVSIFHLGVWVGM: the amyloid nucleation score was -1.12 ± 0.96.

Substance LNQRWCCFTISALR showed an amyloid nucleation score of 7.702 ± 0.076.

In the case of LNRFLYDSCLFSCYFGYMVA, the amyloid nucleation score was -0.017 ± 0.25.

Substance LNTGCDANQILAVCSRGVGV yielded an amyloid nucleation score of 0.793 ± 0.43.

LPCHLPRLVPKGYPSFTLYK had an amyloid nucleation score of -0.672 ± 0.4.

For LPDTCCR, the amyloid nucleation score was found to be 0.994 ± 0.46.

With LPFGGAWVSLCLLRVICILR, the amyloid nucleation score result was “inactive”.

As to LPLGYRLLAQPCPESSRTPA, the amyloid nucleation score was determined as 0.001 ± 0.53.

As to LPRNYTLLMPAVYIYVLVSW, the amyloid nucleation score result is “inactive”.

For LQCQN, the amyloid nucleation score worked out at 0.702 ± 0.4.

In turn, LQFNMVYVCYGWSSVYARSG registered an amyloid nucleation score of 0.409 ± 0.28.

On to LQFNSLAVLGVPGEMNEQTG, for which the amyloid nucleation score is -0.228 ± 0.58.

LRCCRVN returned an amyloid nucleation score of -0.474 ± 0.42.

With LRCRQKKYAAYRGTAVYWLL, the amyloid nucleation score was -0.236 ± 0.76.

LRDTRAWVLN: the amyloid nucleation score was -0.295 ± 0.43.

As for LRELSVCWPT, the amyloid nucleation score is -0.153 ± 0.44.

In turn, LRISSFDMDNSVWFSRVYNY gave an amyloid nucleation score of 0.844 ± 0.26.

As for LRKPKIYVTNRPTQGYGSTA, the amyloid nucleation score turned out to be 0.169 ± 0.55.

LRLCWLNQVRNKQGL displayed an amyloid nucleation score of -0.481 ± 0.92.

For LRLLSNVKWTKCS, the amyloid nucleation score was determined as 0.367 ± 0.97.

Take LRLRVTNVLILGSLGIDEMY: the amyloid nucleation score was determined as 2.37 ± 0.28.

In turn, LRPKWVAGDVLFQIYPWTRR yielded an amyloid nucleation score of 0.629 ± 0.85.

Take LRPSPKVWHDFWGMM: the amyloid nucleation score came out at 0.437 ± 0.47.

Consider LRRFLPMALDDED, for which the amyloid nucleation score was -0.676 ± 1.4.

The substance LRRSTFASVDLRRADFIKLF had an amyloid nucleation score of 0.165 ± 0.69.

For the substance LRRVMFHRGMCHSVVRNGFG, the amyloid nucleation score is -1.48 ± 1.6.

LRSRR gave an amyloid nucleation score of 1.41 ± 0.76.

Turning to LRTCFEQRENMIA, the amyloid nucleation score is -0.229 ± 0.79.

LRTGQGHYDRVVGHRHNLCA: the amyloid nucleation score is -1.42 ± 0.9.

LRVNIPVTQSSTVIHY gave an amyloid nucleation score of 0.91 ± 0.39.

Take LRWPFCQGLYTYLCSLT: the amyloid nucleation score worked out at 1.39 ± 0.47.

Substance LRYFDLVATNHDNMIYDQYL gave an amyloid nucleation score of -0.177 ± 0.68.

Regarding LRYFGL, the amyloid nucleation score result was “inactive”.

LSAKLQFCITIEYALRVTKC had an amyloid nucleation score of -0.106 ± 1.7.

LSALFLVPHYLDMVNLHSWR had an amyloid nucleation score of -0.254 ± 0.44.

For LSDWWKTSMFGYPVYSVVAR, the amyloid nucleation score amounted to 0.62 ± 0.36.

Substance LSEEWTIYKFNRRRMKIGRG yielded an amyloid nucleation score of 0.707 ± 0.4.

The substance LSEIFSCENGVVGSNSETLT displayed an amyloid nucleation score of -0.107 ± 0.35.

For the substance LSGVCRIFH, the amyloid nucleation score stood at 0.584 ± 0.35.

Substance LSHTTVRIDMGAAWRSLYSM displayed an amyloid nucleation score of 2.36 ± 0.13.

The substance LSIAHYGLNQSMSVRYREST came in with an amyloid nucleation score of 0.771 ± 0.66.

In the case of LSKYGVCVALLCIWMGHNWC, the amyloid nucleation score came to 0.22 ± 0.2.

For the substance LSLCSLYNSWQGM, the amyloid nucleation score is 0.492 ± 0.4.

With LSMCYIFCDARYLYSQCFGV, the amyloid nucleation score amounted to 4.38 ± 0.12.

LSMGAHSGGPLQSY: the amyloid nucleation score was -0.205 ± 1.1.

As for LSMGLR, the amyloid nucleation score was found to be 0.388 ± 0.68.

Take LSMGRYRPKRFLLRNTSDTL: the amyloid nucleation score is -0.438 ± 0.44.

Take LSMNICSLNSSRYKPP: the amyloid nucleation score is 2.79 ± 0.098.

As to LSMPMGNLEPL, the amyloid nucleation score is -0.277 ± 0.19.

In the case of LSMSTFVKVCDVNAYPKGTA, the amyloid nucleation score was 0.358 ± 1.1.

Turning to LSQAASNLLSRNLVPLSWLV, the amyloid nucleation score entry is “inactive”.

LSRLRLSAAGSADRESLVVS gave an amyloid nucleation score of 0.538 ± 0.5.

LSSCFPIDRSEDSDVYGYFK came in with an amyloid nucleation score of -0.252 ± 0.49.

LSSGSKYFSKVVDASLVCAC had an amyloid nucleation score of 0.377 ± 0.77.

The substance LSSLGDLLLMNQPNAQRLTY yielded an amyloid nucleation score of -0.746 ± 1.

For the substance LSTAWFGQNAHRCLGLVTLA, the amyloid nucleation score was -0.005 ± 0.59.

In turn, LSVAHDGSLWVLFRKKPFGL showed an amyloid nucleation score of -0.106 ± 0.57.

In the case of LSVICMFTY, the amyloid nucleation score is 4.74 ± 0.052.

Turning to LSVIFTLSFLTAIFAVGIWS, the amyloid nucleation score stood at 0.301 ± 0.23.

With LSWCLPCLSARSVRSRRMVT, the amyloid nucleation score was determined as 0.161 ± 0.25.

In turn, LSWFC gave an amyloid nucleation score of -0.504 ± 0.43.

LSWFPA: the amyloid nucleation score came to 0.179 ± 0.27.

As for LSYMSLFW, the amyloid nucleation score turned out to be 1.94 ± 0.16.

For the substance LSYNTISGFIAYIIDMSPFV, the amyloid nucleation score result was “inactive”.

For LTDLLMFIVPWDNAQRLVCF, the amyloid nucleation score turned out to be 0.518 ± 0.89.

As for LTDPLCQTPFFYLFCRDAQE, the amyloid nucleation score is -0.142 ± 0.4.

In turn, LTEDPGIRSSQR gave an amyloid nucleation score of 0.055 ± 1.

In the case of LTFCCIMYSIYHSQPDFCGL, the amyloid nucleation score was 2.37 ± 0.099.

For LTFLYLYWNFNIYGIYGTTI, the amyloid nucleation score is 0.91 ± 0.19.

Substance LTFRRRYRWGQGTCINFCRR had an amyloid nucleation score of 0.082 ± 0.67.

In the case of LTFTLTDPDSHDANDKWPLH, the amyloid nucleation score was -0.208 ± 0.66.

In the case of LTGASSNTSVLVNWGVASYC, the amyloid nucleation score turned out to be 1.13 ± 0.62.

LTGLVMTVCFFWKARRF: the amyloid nucleation score was determined as 0.845 ± 0.86.

Substance LTHCAWVAFDA registered an amyloid nucleation score of 1.7 ± 0.52.

Regarding LTPRRYIWTYLSWGDAGLEL, the amyloid nucleation score was found to be 1.02 ± 0.9.

Take LTRAWSGWYVTFMGGEILIR: the amyloid nucleation score was -0.118 ± 0.49.

On to LTSFSTDPISGLLAGCFSID, for which the amyloid nucleation score entry is “inactive”.

The substance LTSRNYESIY gave an amyloid nucleation score of -0.159 ± 0.24.

On to LTTYFHFMSMTEWAWRRRSK, for which the amyloid nucleation score is 0.538 ± 0.29.

Take LVALDNAENFRSRKQWIGIR: the amyloid nucleation score is -0.599 ± 1.2.

The substance LVCDQLLIITLKCDERHQVT returned an amyloid nucleation score of 7.474 ± 0.074.

As for LVCFGFSNNCCELCCYYSNL, the amyloid nucleation score is 0.765 ± 0.61.

In turn, LVFDGNLETCRQ displayed an amyloid nucleation score of 0.164 ± 0.61.

In the case of LVGRSFSCEPRLYTFCEFCG, the amyloid nucleation score is 2.61 ± 0.18.

Substance LVITVYLYVRRDFCFAFGWL showed an amyloid nucleation score of -1.06 ± 1.2.

In the case of LVLSWSWICFL, the amyloid nucleation score was 7.39 ± 0.059.

Regarding LVLVNSTWCTYPCGWMCEME, the amyloid nucleation score came out at 0.488 ± 1.2.

In turn, LVMHVSWNVFIAVVLIFKDG showed an amyloid nucleation score of 0.375 ± 0.43.

LVMYCWRTYVYLRTSRGYDA yielded an amyloid nucleation score of 0.259 ± 0.61.
